According to publication PMC4720891:

Target: HA-Mdm2 (human) (UniProt Q00987)
Sequence (Q00987 whole entry): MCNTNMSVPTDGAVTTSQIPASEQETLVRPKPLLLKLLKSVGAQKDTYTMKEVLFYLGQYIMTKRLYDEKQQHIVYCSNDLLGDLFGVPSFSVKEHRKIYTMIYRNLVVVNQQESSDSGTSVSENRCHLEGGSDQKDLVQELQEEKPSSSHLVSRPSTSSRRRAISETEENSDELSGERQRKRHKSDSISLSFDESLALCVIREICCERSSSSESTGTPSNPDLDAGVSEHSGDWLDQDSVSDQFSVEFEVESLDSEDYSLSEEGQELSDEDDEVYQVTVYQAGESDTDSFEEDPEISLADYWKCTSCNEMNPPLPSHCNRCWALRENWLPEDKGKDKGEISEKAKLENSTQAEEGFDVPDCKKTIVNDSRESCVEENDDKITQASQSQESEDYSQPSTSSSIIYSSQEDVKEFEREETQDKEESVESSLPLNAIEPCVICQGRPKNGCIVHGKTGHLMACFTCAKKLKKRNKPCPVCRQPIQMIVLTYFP

FRET (HTRF) signal of MdmX-stimulated Mdm2 autoubiquitination in vitro, against the baseline without MdmX; rises with MdmX concentration and with reaction time: 8 fold
B1: FLAG-MdmX (natural protein)
chain: MTSFSTSAQCSTSDSACRISPGQINQVRPKLPLLKILHAAGAQGEMFTVKEVMHYLGQYIMVKQLYDQQEQHMVYCGGDLLGELLGRQSFSVKDPSPLYDMLRKNLVTLATATTDAAQTLALAQDHSMDIPSQDQLKQSAEESSTSRKRTTEDDIPTLPTSEHKCIHSREDEDLIENLAQDETSRLDLGFEEWDVAGLPWWFLGNLRSNYTPRSNGSTDLQTNQDVGTAIVSDTTDDLWFLNESVSEQLGVGIKVEAADTEQTSEEVGKVSDKKVIEVGKNDDLEDSKSLSDDTDVEVTSEDEWQCTECKKFNSPSKRYCFRCWALRKDWYSDCSKLTHSLSTSDITAIPEKENEGNDVPDCRRTISAPVVRPKDAYIKKENSKLFDPCNSVEFLDLAHSSESQETISSMGEQLDNLSEQRTDTENMEDCQNLLKPCSLCEKRPRDGNIIHGRTGHLVTCFHCARRLKKAGASCPICKKEIQLVIKVFIA
